Data taken from US20030118612A1 (MAXYGEN, published 2003).
Residue numbers refer to the chain shown, from its start. In names and notes the source's numbering stands. Blank lines part the entries; values can stand above or below the binder they belong to.

What was measured:
human G-CSF receptor [1] = target: T1, human G-CSF receptor (human, UniProt Q99062 25-836); assay: cell-based or functional assay
T1 sequence (looked up): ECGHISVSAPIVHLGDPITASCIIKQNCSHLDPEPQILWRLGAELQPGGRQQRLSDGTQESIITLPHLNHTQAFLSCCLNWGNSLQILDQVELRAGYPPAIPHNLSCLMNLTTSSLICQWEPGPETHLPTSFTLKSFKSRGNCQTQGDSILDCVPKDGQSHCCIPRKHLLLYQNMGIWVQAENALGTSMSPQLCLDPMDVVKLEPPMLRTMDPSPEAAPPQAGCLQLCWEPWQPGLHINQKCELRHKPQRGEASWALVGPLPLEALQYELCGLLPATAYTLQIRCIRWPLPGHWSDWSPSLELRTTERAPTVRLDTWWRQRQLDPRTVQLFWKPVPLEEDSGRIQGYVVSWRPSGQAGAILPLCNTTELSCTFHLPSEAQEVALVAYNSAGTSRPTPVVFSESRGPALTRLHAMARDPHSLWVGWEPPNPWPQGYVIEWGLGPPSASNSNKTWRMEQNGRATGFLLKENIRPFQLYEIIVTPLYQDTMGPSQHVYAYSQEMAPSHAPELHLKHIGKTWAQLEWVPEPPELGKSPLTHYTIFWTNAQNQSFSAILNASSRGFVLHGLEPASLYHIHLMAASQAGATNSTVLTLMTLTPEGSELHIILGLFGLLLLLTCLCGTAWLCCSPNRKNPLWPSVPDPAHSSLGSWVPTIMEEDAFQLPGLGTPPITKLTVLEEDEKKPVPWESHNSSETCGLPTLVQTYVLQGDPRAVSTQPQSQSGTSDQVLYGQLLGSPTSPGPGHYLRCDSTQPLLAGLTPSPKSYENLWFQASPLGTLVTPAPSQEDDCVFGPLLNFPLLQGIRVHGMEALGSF

human G-CSF receptor [2] = target: T1, human G-CSF receptor; assay: cell-based or functional assay; remark: listed apart in the source

B3: G-CSF variant K16/34/40R Q90K T105K S159K conjugated to SPA-PEG 20000 (ligand)
chain: TPLGPASSLPQSFLLRCLEQVRKIQGDGAALQERLCATYRLCHPEELVLLGHSLGIPWAPLSSCPSQALQLAGCLSQLHSGLFLYQGLLKALEGISPELGPTLDKLQLDVADFATTIWQQMEELGMAPALQPTQGAMPAFASAFQRRAGGVLVASHLQKFLEVSYRVLRHLAQP
modifications: conjugated to SPA-PEG 20000
EC50(% of hG-CSF) conjugated to SPA-PEG 20000 (human G-CSF receptor [1]): < 1 % of hG-CSF

B4: G-CSF variant K16/34/40R Q90K T105K S159K conjugated to SPA-PEG 12000 (ligand)
chain: B3 chain
modifications: conjugated to SPA-PEG 12000
EC50 (% of hG-CSF) conjugated to SPA-PEG 12000 (human G-CSF receptor [1]): 1 % of hG-CSF

Further lines, results first:

EC50 (% of hG-CSF) conjugated to SPA-PEG 12000 (human G-CSF receptor [1]): 6 % of hG-CSF
B1: G-CSF variant K16/34/40R T105K S159K conjugated to SPA-PEG 12000 (ligand)
chain: B3 chain with K90Q
modifications: conjugated to SPA-PEG 12000

EC50(% of hG-CSF) conjugated to SPA-PEG 20000 (human G-CSF receptor [1]): 5 % of hG-CSF
B2: G-CSF variant K16/34/40R T105K S159K conjugated to SPA-PEG 20000 (ligand)
chain: B3 chain with K90Q
modifications: conjugated to SPA-PEG 20000

EC50 (human G-CSF receptor [2]): 0.03 nM
B5: non-conjugated hG-CSF (Neupogen®) (ligand)
chain: MTPLGPASSLPQSFLLKCLEQVRKIQGDGAALQEKLCATYKLCHPEELVLLGHSLGIPWAPLSSCPSQALQLAGCLSQLHSGLFLYQGLLQALEGISPELGPTLDTLQLDVADFATTIWQQMEELGMAPALQPTQGAMPAFASAFQRRAGGVLVASHLQSFLEVSYRVLRHLAQP
